The text below walks through data of patent US7314716B2, “Gustducin γ subunit materials and methods” (Mount Sinai School of Medicine, priority 1999, dated 2008).

One assay addresses T1, β1 subunit (Homo sapiens, UniProt P62873).
T1 construct: made in house; host or cells: cell-free in vitro transcription/translation
The assay can be described thus: Trypsin assay of βγ dimer formation. In kind it is binding. The note with it: cotranslated in vitro with β1 subunit. The procedure: To determine which β and gustducin γ subunit combinations were capable of forming dimers another trypsin assay was utilized. β monomers are cleaved at numerous sites by trypsin, whereas βγ dimers are cleaved at a single site, resulting in the appearance of a 26-kDa fragment of the β subunit. See Schmidt et al., J. Biol. Chem., 267: 13807–13810 (1992).
Plasmid DNAs (0.5 μg) encoding β1 subunit was transcribed and translated in vitro, in the presence or absence of plasmid DNA (0.5 μg) coding for the gustducin γ subunit. Aliquots (10 μl) of the cotranslated βγ mix or β subunit alone were digested by TPCK-treated trypsin (1 μg) in a final volume of 20 μl (with 50 mM Na-HEPES pH 8.0). After incubation for 1 hour at 30° C., the digestions were stopped by addition of 6 μg SBTI as described above. Protected fragments of β subunits were analyzed on 15% SDS-PAGE. Detection was as described above.
In the assay, β1 formed dimers with gustducin γ subunit that were protected from trypsin digestion.

The target in another assay is T2, gustducin α subunit (Rattus norvegicus, UniProt P29348).
T2 construct: made in house; host or cells: cell-free in vitro transcription/translation (Promega TNT system)
Put plainly: Trypsin protection assay of G protein α and γ subunit interaction. In kind it is binding. The note with it: in vitro translated γ and α subunits mixed 3:1, without β subunit. The source says:
The interaction was confirmed using a trypsin protection assay that detects the direct interaction of G protein α and γ subunits. The assay is based on the fact that γ subunits, in the absence of β subunits, can interact directly with α subunits, and that this interaction apparently dictates which βγ dimer associates with which α subunit. See Rahmatullah & Robishaw, J. Biol. Chem., 269: 3574–3580 (1994).
To monitor G protein α and γ subunit interactions, gustducin γ and α subunit DNAs were transcribed and translated in vitro using the Promega TNT system, mixed in a 3:1 ratio, and incubated for 15 minutes at 30° C. in buffer G [15 mM Na-HEPES pH 8.0, 250 mM NaCl, 0.6 mM EDTA, 0.6 mM DTT, 5 mM MgCl2, 0.1 mM GDP and 0.3% polyoxyethylene 10-lauryl ether (LPX)]. The assay was initiated by adding Tosyl-L-phenylalanine chloromethyl ketone (TPCK) treated-trypsin (0.5 μg), incubated for 1 hour at 30° C., and terminated with 3 μg soybean trypsin inhibitor (SBTI) (15 min, at 30° C.). The samples were analyzed on 12% SDS-PAGE, gels were fixed, enhanced with En^3Hance (NEN), dried and exposed to X-ray film.
Other Gγ subunits were also tested in the assay.

T2 sequence (P29348 2-354 limits assumed): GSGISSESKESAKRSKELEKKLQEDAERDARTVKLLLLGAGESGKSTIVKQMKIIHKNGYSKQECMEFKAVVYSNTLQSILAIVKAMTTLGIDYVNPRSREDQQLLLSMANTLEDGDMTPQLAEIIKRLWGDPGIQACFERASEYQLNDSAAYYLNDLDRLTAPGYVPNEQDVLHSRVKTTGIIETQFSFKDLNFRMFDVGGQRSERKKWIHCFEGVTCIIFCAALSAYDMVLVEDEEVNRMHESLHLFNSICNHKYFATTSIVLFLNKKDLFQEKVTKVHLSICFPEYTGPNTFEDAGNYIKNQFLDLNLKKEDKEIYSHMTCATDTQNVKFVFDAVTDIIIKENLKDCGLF
T1 sequence (P62873 whole entry): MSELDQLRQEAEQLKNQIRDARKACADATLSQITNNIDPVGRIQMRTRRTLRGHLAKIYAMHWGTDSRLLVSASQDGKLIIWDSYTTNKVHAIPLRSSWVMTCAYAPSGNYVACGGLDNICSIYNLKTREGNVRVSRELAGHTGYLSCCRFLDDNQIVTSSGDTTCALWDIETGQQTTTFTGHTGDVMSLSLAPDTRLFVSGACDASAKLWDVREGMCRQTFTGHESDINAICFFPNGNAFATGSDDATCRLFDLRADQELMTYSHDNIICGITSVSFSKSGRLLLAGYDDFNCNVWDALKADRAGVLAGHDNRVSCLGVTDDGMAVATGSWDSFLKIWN
T1 sequence (Q9P2W3 whole entry partner): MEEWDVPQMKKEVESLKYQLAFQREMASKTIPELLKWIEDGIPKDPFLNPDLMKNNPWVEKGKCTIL

B1: Gustducin γ subunit: γ subunit of the taste cell G protein gustducin, 67 amino acids, designated Gγ13 (protein, listed as Mus musculus)
chain: MEEWDVPQMKKEVESLKYQLAFKREMSSKTIPELLKWIEDGIPKDPFLNPDLMKNNPWVEKAKCTIL
modifications: ends and bridges not checked
notes: γ subunit of the taste cell G protein gustducin, 67 amino acids, designated Gγ13
Consider B1, for which the “dimer formation with β1, protected from trypsin digestion” value with β1 subunit was “formed dimers”. In addition, the “protection of gustducin α subunit from tryptic digestion” value (shortened to “protection of gustducin α subunit”) with gustducin α subunit is reported as “protected gustducin α subunit from tryptic digestion to a significant extent”.

B2: cone γ8 subunit: the cone transducin α subunit partner (protein)
chain: MAQDLSEKDLLKMEVEQLKKEVKNTRIPISKAGKEIKEYVEAQAGNDPFLKGIPEDKNPFKEKGGCLIS
modifications: ends and bridges not checked
notes: the cone transducin α subunit partner
On to B2, for which the “protection of gustducin α subunit” value with gustducin α subunit is on record as “unable to protect”.

B3: Gγ5: G protein γ5 subunit (protein)
chain: SGSSSVAAMKKVVQQLRLEAGLNRVKVSQAAADLKQFCLQNAQHDPLLTGVSSSTNPFRPQKVC
Turning to B3, the “protection of gustducin α subunit” value with gustducin α subunit was “unable to protect”.

B4: Gγ1: G protein γ subunit which interacts with the rod transducin α subunit (protein)
chain: PVINIEDLTEKDKLKMEVDQLKKEVTLERMLVSKCCEEFRDYVEERSGEDPLVKGIPEDKNPFKELKGGC
For the molecule B4, the “protection of gustducin α subunit” value in the assay with gustducin α subunit is “appeared to interact with gustducin α subunit, albeit to a lesser extent”.
